Measurements: the supplement of paper PMC9112550, “Optimization of the antimicrobial peptide Bac7 by deep mutational scanning” (BMC Biology, 2022)

System: Escherichia coli TOP10
Experiment: shrunken log2 fold change of peptide-encoding DNA abundance (4.5 h post-induction vs induction); higher = less antimicrobial activity (less host growth inhibition)
Conditions: time post-induction: 4.5 h; library: site-saturation at positions 5, 18, 19, 20
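Note: peptides expressed intracellularly from a pBAD plasmid library in pooled LB shake-flask culture, induced with 0.3% L-arabinose, DNA abundance read by NGS, three biological replicates, DESeq2 with apeglm shrinkage.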

Sequence | shrunken log2 fold change
RRIRFRPPRLPRPRPRPCYIPRP | -0.158
RRIRARPPRLPRPRPRPKRPPRP | 1.03
RRIRQRPPRLPRPRPRPTDGPRP | 0.178
RRIRVRPPRLPRPRPRPEYMPRP | -0.305
RRIRRRPPRLPRPRPRPIQMPRP | 0.272
RRIRIRPPRLPRPRPRPHEFPRP | -0.241
RRIRLRPPRLPRPRPRPPCEPRP | 0.123
RRIRARPPRLPRPRPRPPTGPRP | 0.663
RRIRIRPPRLPRPRPRPGFCPRP | 0.135
RRIRNRPPRLPRPRPRPECQPRP | 0.00386
RRIRKRPPRLPRPRPRPVPGPRP | 0.515
RRIRNRPPRLPRPRPRPVDFPRP | -0.262
RRIRERPPRLPRPRPRPCPWPRP | -0.278
RRIRNRPPRLPRPRPRPFGEPRP | -0.0176
RRIRSRPPRLPRPRPRPAKFPRP | -0.134
RRIRLRPPRLPRPRPRPSDMPRP | -0.18
RRIRSRPPRLPRPRPRPCWTPRP | -0.306
RRIRSRPPRLPRPRPRPIGQPRP | 0.0342
RRIRRRPPRLPRPRPRPENDPRP | 0.785
RRIRNRPPRLPRPRPRPLYKPRP | -0.561
RRIRRRPPRLPRPRPRPLHMPRP | 0.0287
RRIRYRPPRLPRPRPRPDGSPRP | -0.317
RRIRYRPPRLPRPRPRPCAPPRP | -0.329
RRIRDRPPRLPRPRPRPDSGPRP | -0.00436
RRIRARPPRLPRPRPRPFSNPRP | -0.342

Sequence | shrunken log2 fold change
RRIRPRPPRLPRPRPRPGGVPRP | 0.567
RRIRCRPPRLPRPRPRPNQIPRP | -0.367
RRIRMRPPRLPRPRPRPKMIPRP | -0.0167
RRIRQRPPRLPRPRPRPAYNPRP | 0.018
RRIRHRPPRLPRPRPRPHIHPRP | -0.328
RRIRTRPPRLPRPRPRPPAMPRP | 0.294
RRIRERPPRLPRPRPRPIAQPRP | -0.0491
RRIRSRPPRLPRPRPRPTKVPRP | -0.213
RRIRPRPPRLPRPRPRPSPIPRP | 0.335
RRIRDRPPRLPRPRPRPRYMPRP | -0.233
RRIRRRPPRLPRPRPRPNDRPRP | 0.205
RRIRARPPRLPRPRPRPAVSPRP | 0.431
RRIRMRPPRLPRPRPRPNNEPRP | -0.0748
RRIRWRPPRLPRPRPRPDKMPRP | -0.0535
RRIRLRPPRLPRPRPRPKPQPRP | 0.212
RRIRWRPPRLPRPRPRPVLTPRP | 0.147
RRIRFRPPRLPRPRPRPKWYPRP | -0.388
RRIRPRPPRLPRPRPRPCCWPRP | 0.81
RRIRHRPPRLPRPRPRPGLNPRP | -0.0123
RRIRCRPPRLPRPRPRPFVNPRP | -0.521
RRIRDRPPRLPRPRPRPQCKPRP | 0.0759
RRIRVRPPRLPRPRPRPGMFPRP | -0.132
RRIRIRPPRLPRPRPRPLMLPRP | -0.704
RRIRVRPPRLPRPRPRPCYEPRP | -0.246
RRIRYRPPRLPRPRPRPIAWPRP | -0.0381
